Source: US20230365685A1 (SUZHOU NEOLOGICS BIOSCIENCE, published 2023)

Assays:
[1] = target: T1, human TIM-3 recombinant protein (TIM-3-his) (human, UniProt Q8TDQ0 22-202); assay: biosensor (HFC sensor, Probe Life): antibody captured, TIM-3-his in solution, 1:1 fit;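 also: antigen applied as a twofold dilution series, association and dissociation phases recorded, KD obtained as koff divided by kon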
T1 construct: also called TIM-3 protein; not shown: His tag

mouse TIM-3 = target: T2, mouse TIM-3 (mouse, UniProt Q8VIM0 20-281); assay: flow cytometry on cells stably expressing mouse TIM-3, PE-labelled secondary antibody; concentration not shown
T2 construct: whole, on cells

human TIM-3 = target: T3, human TIM-3 (human, UniProt Q8TDQ0 22-202, limits assumed); assay: BLI (Octet-96); antigen not named in the paragraph
T3 construct: also called HAVCR2; target antigen

Row | Binder | Kd [1] [nM] | koff [1] [s⁻¹] | kon [1] [M⁻¹ s⁻¹] | binding result (mouse TIM-3) | Kd (human TIM-3) [nM]
1 | 36A2 (antibody, V domains shown, also called 36A12) VH: DVQLVESGGGLVQPGGSRKLSCAASGFTFSSFEMHWVRQAPETGLEWVAYISGGSTTIYYADTMKGRFTISRDNPENTLFLQMTSLRSEDTAIYYCVRSYYGLLDYWGQGTTLTVSS VL: NIMMTQSPSSLSVSTGEKVTMSCKSSQSVLHSSNQKNFLAWFQQKPGQSPKLLIYWASTRESGVPDRFTGSGSGTDFTLTINNVQPEDLAVYYCHQYLSSLTFGAGTKLELK | 1.01 | 0.000559 | 553000 | – | –
2 | 38A8 (antibody, V domains shown) VH: QVQLQQPGAELVKPGASVKMSCKASGYTFTTYNMHWVKQTPGQGLEWIGGIYPGNGDTSYNQKFKGKATLTADKSSSTAYMQLSSLTSEDSAVYYCARSYYTFDAMDCWGQGTSVTVSS VL: DIVMSQSPSSLAVSAGEKVTMSCKSSQSLLNSRTRKNYLAWYQQKPGRSPKLLIYWASTRESGVPDRFTGGGSGTDFTLTISSVQAEDLAVYYCKQSYSLLTFGAGTKLELK | 1.36 | 0.00126 | 928000 | – | –
3 | 36B11 (antibody, V domains shown) VH: QVTLKESGPGILQPSQTLSLTCSFSGFSLSTSGMGVGWIRQPSGKGLEWLAHIWWDDVKRYNPALKSRLTISKDTSSSQVFLKIASVDTADTATYYCVRTFITTTTMDYWGQGTSVTVSS VL: QIVLTQSPTIMSASPGEKVTLTCSASSGISSSYLYWYQQKPGSSPKLWIYGTSNLASGVPARFSGSGSGTSYSLTISSLEAEDAASYFCHQWSNYPYTFGGGTKLEIK | 0.432 | 0.000383 | 885000 | – | –
4 | 84G10 (antibody, V domains shown) VH: QVQLQQSGGELVRPGSSVKISCKASGYAFSSYWMNWVKQRPGQGLEWIGQIYPGEGDTNYNGKFKGKATLTADKSSSTAYMQLSSLTSEDSAVYFCARGHFYGSSYDWFAYWGQGTLVTVSA VL: DIQMTQSPASLSASVGETVTITCRASENINSYLAWYQQKQGKSPQLLVYHAKTLASGVPSRFSGSGSGTQFSLKINSLQPEDFGSYYCQHHYGTPLTFGAGARLELK | 2.84 | 0.00197 | 692000 | – | –
5 | 38F8 (antibody, V domains shown) VH: EVQLQQLGAELVKPGASVKISCKASGYIFTDYSMDWVKQSHGESLEWIGDINPNYDSLSYNQKFKGKATLTVDKSSSTAYMELRSLTSEDTAVYYCARRGYGKDYFDFWGQGTSLTVSS VL: TWGMTQTTSSLSASLGDRVTISCRASQDISNYLNWYQQKPDGTVKLLIYHTSRLYSGVPSRFTGSGSGTDYSLTISNLEQEDIATYFCQQGNTLPLTFGAGTKLELK | 1.74 | 0.00255 | 1.47e+06 | – | –
6 | 40F11 (antibody, V domains shown) VH: QIQLVQSGPELKKPGETVRISCKASGYTFRTAEMQWVQKMPGRGLKWIGWINTRSGVPKYAEDFKGRFALSLETSATTAYLQISNLKNEDTATYFCTRGTYAMDYWGQGTSVTVSS VL: ENVLTQSPAIMSASPGEKVTMTCRASSIVSSSYLHWYQQKSGASPKLWIYSTSNLPSGVPARFSGSGSGTFYSLTVSSVESEDAATYYCQQYSGYPYTFGGGTKLEIK | 2.21 | 0.0019 | 857000 | – | –
7 | CH 9# (antibody, V domains shown) VH: QVKLQESGPGLVAPSQSLSITCTVSGFSLTGYGVHWVRQPPGKGLEWLGMIWGDGSTDYNSALKSRLSISKDNSKSQVFLKMNSLQTDDTARYYCARDRGNHWYFDVWGQGTTVTVSS VL: DIELTQSPAILSASPGEKVTMTCRASSSVSYMHWYQQKPGSSPKPWIYATSNLASGVPARFSGSGSGTSYSLTISRVEAEDAATYYCQQWSSNPLTFGAGTKLEIK | 553 | 0.00287 | 5190 | – | –
8 | 18C6 (antibody, V domains shown) VH: QVQLQQPGAEIVMPGASVKMSCKASGYKFTDFLMHWVKQRPGQGLEWIGAIDTSDSYASYNQKFKGKATLTLDESSSTAYMQLSSLTSEDSAVYYCSREAMDYWGQGTSVTVSS VL: DVVMTQTPLSLPVSLGDQASISCRSSQSLVHSNGNTYLHWFLQKPGQSPKLLIYKVSNRFSGVPDRFSGSGSGTDFTLKISRVEAEDLGVYFCCQSTHVPPLTFGAGTKLELK | 0.207 | 0.00012 | 580000 | no binding | –
9 | 3E6 VH4/3E6 VL0 (antibody, V domains shown, Humanized 3E6; VH and VL cloned into vectors with constant regions (CH1-FC/CL) and expressed in 293F cells; also called humanized 3E6 VH4/VL0) VH: QVQLQESGPGLVKPSQTLSLTCTVSGYSITSGFAWNWIRQPPGNGLEWIGYISHSGSTSYNPSLKSRITISVDTSKNQFSLKLSSVTAADTAVYYCARGYRSPWFAYWGQGTTVTVSS VL: DIQMTQSPSSLSASVGDRVTITCKASQNVGANVAWYQQKPGKAPKSLIYSASYRYSGVPSRFSGSGSGTDFTLTISSLQPEDFATYYCQQYNSYPTFGGGTKVEIK | – | – | – | – | 1.87
10 | 3E6 VH2/3E6 VL0 (antibody, V domains shown, Humanized 3E6; VH and VL cloned into vectors with constant regions (CH1-FC/CL) and expressed in 293F cells; also called humanized 3E6 VH2/VL0) VH: QVQLQESGPGLVKPSQTLSLTCTVSGYSITSGFAWNWIRQPPGKGLEWMGYISHSGSTSYNPSLKSRVTISVDTSKNQFSLKLSSVTAADTAVYYCARGYRSPWFAYWGQGTTVTVSS VL: DIQMTQSPSSLSASVGDRVTITCKASQNVGANVAWYQQKPGKAPKSLIYSASYRYSGVPSRFSGSGSGTDFTLTISSLQPEDFATYYCQQYNSYPTFGGGTKVEIK | – | – | – | – | 2.21
11 | 3E6 VH5/3E6 VL0 (antibody, V domains shown, Humanized 3E6; VH and VL cloned into vectors with constant regions (CH1-FC/CL) and expressed in 293F cells; also called humanized 3E6 VH5/VL0) VH: QVQLQESGPGLVKPSQTLSLTCTVSGYSITSGFAWNWIRQPPGNGLEWIGYISHSGSTSYNPSLKSRITISRDTSKNQFSLKLSSVTAADTAVYYCARGYRSPWFAYWGQGTTVTVSS VL: DIQMTQSPSSLSASVGDRVTITCKASQNVGANVAWYQQKPGKAPKSLIYSASYRYSGVPSRFSGSGSGTDFTLTISSLQPEDFATYYCQQYNSYPTFGGGTKVEIK | – | – | – | – | 1.78
12 | 3E6 VH3/3E6 VL0 (antibody, V domains shown, Humanized 3E6; VH and VL cloned into vectors with constant regions (CH1-FC/CL) and expressed in 293F cells; also called humanized 3E6 VH3/VL0) VH: QVQLQESGPGLVKPSQTLSLTCTVSGYSITSGFAWNWIRQPPGNGLEWIGYISHSGSTSYNPSLKSRVTISVDTSKNQFSLKLSSVTAADTAVYYCARGYRSPWFAYWGQGTTVTVSS VL: DIQMTQSPSSLSASVGDRVTITCKASQNVGANVAWYQQKPGKAPKSLIYSASYRYSGVPSRFSGSGSGTDFTLTISSLQPEDFATYYCQQYNSYPTFGGGTKVEIK | – | – | – | – | 1.98
13 | 3E6 VH6/3E6 VL0 (antibody, V domains shown, Humanized 3E6; VH and VL cloned into vectors with constant regions (CH1-FC/CL) and expressed in 293F cells; also called humanized 3E6 VH6/VL0) VH: QVQLQESGPGLVKPSQTLSLTCTVSGYSITSGFAWNWIRQPPGKGLEWMGYISHSGSTSYNPSLKSRITISVDTSKNQFSLKLSSVTAADTAVYYCARGYRSPWFAYWGQGTTVTVSS VL: DIQMTQSPSSLSASVGDRVTITCKASQNVGANVAWYQQKPGKAPKSLIYSASYRYSGVPSRFSGSGSGTDFTLTISSLQPEDFATYYCQQYNSYPTFGGGTKVEIK | – | – | – | – | 1.46
14 | 3E6 VH7/3E6 VL0 (antibody, V domains shown, Humanized 3E6; VH and VL cloned into vectors with constant regions (CH1-FC/CL) and expressed in 293F cells; also called humanized 3E6 VH7/VL0) VH: QVQLQESGPGLVKPSQTLSLTCTVSGYSITSGFAWNWIRQPPGKGLEWMGYISHSGSTSYNPSLKSRITISRDTSKNQFSLKLSSVTAADTAVYYCARGYRSPWFAYWGQGTTVTVSS VL: DIQMTQSPSSLSASVGDRVTITCKASQNVGANVAWYQQKPGKAPKSLIYSASYRYSGVPSRFSGSGSGTDFTLTISSLQPEDFATYYCQQYNSYPTFGGGTKVEIK | – | – | – | – | 1.96
15 | 3E6 VH1/3E6 VL0 (antibody, V domains shown, Humanized 3E6; VH and VL cloned into vectors with constant regions (CH1-FC/CL) and expressed in 293F cells; also called humanized 3E6 VH1/VL0) VH: QVQLQESGPGLVKPSQTLSLTCTVSGYSITSGFAWNWIRQFPGNGLEWMGYISHSGSTSYNPSLKSRVTISVDTSKNQFSLKLSSVTAADTAVYYCARGYRSPWFAYWGQGTTVTVSS VL: DIQMTQSPSSLSASVGDRVTITCKASQNVGANVAWYQQKPGKAPKSLIYSASYRYSGVPSRFSGSGSGTDFTLTISSLQPEDFATYYCQQYNSYPTFGGGTKVEIK | – | – | – | – | 467
16 | CH 5# (antibody, V domains shown) VH: QVQLQQSGPDLVKPGASVKISCKASGYSFTGYYMHWVKQSHGKSLEWIGRVNPNNGGTDYDQKFKGKAILSVDKSSNTAYMELRSLTSEDSAVYYCAREGEYFDYYAMDYWGQGTTVTVSS VL: DIELTQSPASLAVSLGQRATISCRASESVEYYGTSLMQWYQQKPGQPPKLLIYAASNVESGVPARFSGSVSGTDFSLNIHPVEEDDIAMYFCQQSRKVPITFGSGTKLEIK | 188 | 0.00153 | 8130 | – | –
17 | CH 8# (antibody, V domains shown) VH: QVKLQQSGPDLVKPGASVKISCKASGYSFTGYYMHWVKQSHGKSLEWIGRVYPNNGGTSYNQKFKGKAILTVDKSSSTAYMELRSLTSEDSAVYYCAREGEYFDYFAMDYWGQGTTVTVSS VL: DIELTQSPASLAVSLGQRATISCRASESVEYYGTSLMQWYQQKPGQPPKLLIYAASNVESGVAARFSGSGSGTDFSLNIHPVEEDDIAMYFCQPSRKVPYTFGGGTKLEIK | 512 | 0.00253 | 4930 | – | –
18 | 50H9 (antibody, V domains shown) VH: EVQLVESGGDLVKPGGSLKLSCAASGFTFSTNGMSWVRQIPDKRLEWVATISSGGSNTYYPDSVKGRFTISRDNAKNTLYLQMSSLKSEDTAMYYCARRSELGPFAYWGQGTLVTVSA VL: DVQMIQSPSSLSASLGDIVTMTCQASQGSSVNLNWFQQKPGKSPKLLIHGSNILEDGVPSRFSGSRYGTDFTLTISSLENEDMATYFCLQHSYLPYTFGGGTKLEIK | 6 | 0.00903 | 1.51e+06 | – | –
